This test concerns the target GST-tagged βI spectrin N-terminal fragment, residues 1 to 301 (UniProt P11277). The experiment in a line: pull-down.

In article PMC4409870 one finds reduction of binding against the unphosphorylated protein data, which are given here for two substances.

Chain of UniProt P11277 (P11277 1-301): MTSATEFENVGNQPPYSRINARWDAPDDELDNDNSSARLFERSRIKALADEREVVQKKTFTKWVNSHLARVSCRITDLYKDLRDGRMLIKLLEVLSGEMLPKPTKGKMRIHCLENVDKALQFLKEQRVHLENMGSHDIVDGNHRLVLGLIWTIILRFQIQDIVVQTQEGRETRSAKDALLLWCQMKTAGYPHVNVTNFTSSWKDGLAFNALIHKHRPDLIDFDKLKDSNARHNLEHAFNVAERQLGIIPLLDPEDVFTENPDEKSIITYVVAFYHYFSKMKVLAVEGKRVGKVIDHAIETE

With “His-tagged 4.1R-S312A, phosphorylated in vitro by the catalytic subunit of PKC (natural protein)”, the reduction of binding against the unphosphorylated protein was determined as 30%.
The figure for “His-tagged 4.1R-S331A, phosphorylated in vitro by the catalytic subunit of PKC (natural protein)” is 30%.
